We go through 1 molecule from paper PMC4891260 (2015).

For this assay, the target named is T1, DEAD box helicase p68 S551F (mp68) peptide on H-2Kb (mouse).
T1 peptide: SNFVFAGI
The assay can be described thus: killing.

B1: 1D9 TCR (TCR)
alpha TRAV1 TRAJ30 CDR3: CAVRSDTNAYKVIF
beta TRBV19 TRBJ2-7 CDR3: CASSKRLSSYEQYF
Regarding B1, the binding result is listed as “recognises”.
